We go through 5 molecules from patent US9290544B2, “Methods for making and using molecular switches involving circular permutation” (priority 2004, dated 2016).

Data set [1] can be described thus: Nitrocefin hydrolysis in soluble fraction of cell lysates with and without 5 mM maltose (screen and confirmation of positives). It is filed as biochemical. Conditions: 50 μM nitrocefin; 5 mM maltose; 100 mM sodium phosphate buffer, pH 7.0. On the procedure:
Next, 50 μl of PopCulture (Novagen) and 2.5 unit of benzonase nuclease was added to each well and incubated for 15 minutes at room temperature to lyse the cells. The cells debris and any unlysed cells were pelleted by centrifugation and supernatant was recovered. In 96-well format, 60 μl of lysate was assayed for hydrolysis of nitrocefin (50 μM) by monitoring the increase in absorbance at 490 nm in 100 mM sodium phosphate buffer, pH 7.0, both with and without 5 mM maltose. Any lysate in which there was a difference in rate of more than 2-fold (between with and without maltose) was selected for retesting and further investigation.
Library members identified as having more than 200% switching activity in the 96-well plate screen were grown 24-48 hours in 100 ml LB media in 500 ml shaker flasks at 22° C. without IPTG. The cells were pelleted and resuspended in 8 ml assay buffer (100 mM sodium phosphate buffer, pH 7.0) and lysed by French press. The soluble fraction of this lysate was assayed for hydrolysis of nitrocefin (50 μM) at 22° C. as previously described (Guntas and Ostermeier 2004) both with and without 5 mM maltose. Initial rates were determined from absorbance at 486 nm monitored as a function of time. The enzyme was incubated at the assay temperature in the absence or presence of 5 mM maltose for four minutes prior to performing the assay. All assays contained 100 mM sodium phosphate buffer, pH 7.0. Library members for which there was a difference in the initial rate of more than about 2-fold were sequenced (Table 4). Switches RG-5-169 and RG-200-13 were also assayed in the presence of 5 mM sucrose or 5 mM glucose.

Data set [2] can be described thus: Magnitude of switching in soluble fraction of cell lysates, Libraries 2-7 (FIG. 13). Format: biochemical. Conditions: room temperature, 50 μM nitrocefin. On the procedure: Libraries were plated on LB plates containing […] at the indicated concentrations of ampicillin and incubated at 37° C. overnight. From these plates, colonies were picked to inoculate 1 ml LB media (supplemented with 50 μg/ml chloramphenicol and 1 mM IPTG) in 96-well format. Lysates from these cultures were assayed for nitrocefin hydrolysis activity in the presence and absence of maltose as described above.
Libraries 2-7 were plated on different levels of ampicillin in the presence of 50 mM maltose. Colonies that grew were used to inoculate 96-well plates. The resulting cultures were lysed and assayed at room temperature for nitrocefin hydrolysis in the presence and absence of maltose in 96-well format.
FIG. 13 is a schematic depiction of the library construction schemes for Libraries 2-7, and of particular switches identified from these libraries. The arrowheads indicate the sites of insertion. Multiple arrowheads on one gene indicate random insertion sites. Dashed arrows indicate a particular switch on which successive libraries were based. The magnitude of switching was determined on the soluble fraction of cell lysates at room temperature using 50 μM nitrocefin. For switches with a rate increase in the presence of maltose, the ratio is of “with maltose” to “without maltose” (indicated by no sign in front of the value). […]

A short description of data set [3]: Steady state kinetics of nitrocefin hydrolysis, purified RG13 proteins, 25° C. The following applies: for Km / kcat: nitrocefin. Format: biochemical. On the procedure: All kinetic assays were performed at 25° C. in the presence of 100 mM sodium phosphate buffer, pH 7.0. Ten μl of enzyme stock was added to 1.59 ml buffer (containing the saccharide, if desired). After incubation for 30 seconds, 0.4 ml of 5× substrate was added and the absorbance at the appropriate wavelength was recorded using the Cary50 UV-VIS spectrophotometer. The wavelength monitored was 486 nm, 240 nm, and 232 nm for nitrocefin, carbenicillin, and ampicillin respectively. From the initial rate of reaction the kinetic constants were determined using Eadie-Hofstee plots. […] The rate data was consistent with a small hysteretic effect (Brennan et al. 1994) and not substrate inhibition as preincubation of the enzyme with the substrate for one minute prevented the lag from occurring upon addition of more substrate. Therefore, the steady state parameters for nitrocefin hydrolysis in the absence of maltose were determined by measuring the rate at 1-2 minutes (well after the lag) and correcting the substrate concentration by subtracting the amount of substrate hydrolyzed. In all cases the extent of reaction at the point the rate was measured was less than 25%. In the presence of maltose, no lag was observed.

Data set [4] can be described thus: Apparent dissociation constant for maltose from initial rate of nitrocefin hydrolysis. It is filed as binding. Conditions: 25° C. On the procedure: [formula] where ΔF is the change in fluorescence intensity, ΔFmax is the difference in fluorescence between no maltose and saturating amounts of maltose and [L] is the maltose concentration. The fluorescence quenching of RG13(1329W/A96W) upon addition of maltose was insufficient to accurately determine a Kd by this method. The dissociation constant for maltose and RG13(I329W) in the presence of saturating carbenicillin (2 mM) was determined by measuring the initial rate of carbenicillin hydrolysis as a function of maltose concentration. The apparent dissociation constant in the presence of subsaturating concentrations of nitrocefin (25 μM) for all three proteins was determined by measuring the initial rate of nitrocefin hydrolysis as a function of maltose concentration.

For the next data set, the system named is DH5α-E cells. The data set can be described thus: In vivo characterization: MIC of ampicillin for DH5α-E cells expressing the protein. The following applies: LB plates, 37° C., 20 hours. Format: cell-based, E. coli. As to the method:
Overnight inoculums of DH5α-E cells expressing RG13, BLA or BLA(W208G) were diluted into LB media and plated on LB plates, either in the absence or presence of 50 μM maltose, in the presence of increasing amounts of ampicillin. Ampicillin was present in the plates at the following concentrations: 0, 2, 4, 8, 16, 32, 64, 128, 256, 512, and 2000 μg/ml. Cells were plated at approximately 1000 CFU (no antibiotic) per plate. The plates were incubated at 37° C. for 20 hours. The minimum inhibitory concentration (MIC) was defined as the lowest ampicillin concentration at which no colonies were present, or that at which the number of colonies present was <1% of the number of colonies at the next lowest level of ampicillin.

For data set [5] the following is noted: cited from earlier work.
The mark [6] stands for this setting: effector maltose 5 mM (saturating).
Where [7] appears, read: effector maltose 5 mM (saturating), 25° C.

Where two headings read alike, the source gives them in different places.

As to “IFD-5-7: MBP[1-165]-BLA[110-286]-DKS-BLA[24-107]-MBP[164-370]; SEQ ID NO: 67”, the “Switching effect: percent change in velocity of nitrocefin hydrolysis in the presence of 5 mM maltose” value (from here on “Switching effect: percent change”) in data set [1] is on record as “+96%”.

On to “IFD-5-15: MBP[1-165]-BLA[168-286]-DKS-BLA[24-170]-MBP[164-370]; SEQ ID NO: 71”, for which, in data set [1], the “Switching effect: percent change” value is on record as “+97%”.

Take “IFG-5-277: MBP[1-165]-BLA[218-286]-GSGGG-BLA[24-215]-MBP[164-370]; maltose is a negative effector; SEQ ID NO: 69”: the “Switching effect: percent change” value in data set [1] was −250%. Further, the “Effect of maltose on catalytic activity (magnitude of switching)” value in data set [2] was “negative effector”.

With “RG13 I329W/A96W: RG13 with MBP hinge mutations I329W and A96W; SEQ ID NO: 65”, in data set [3] (effector maltose 5 mM), the “Km Ratio (with effector)/(without effector)” value is 0.23 ± 0.04. In data set [3] (setting [6]), the “kcat Ratio (with effector)/(without effector)” value was found to be 1.5 ± 0.2 and the “kcat/Km Ratio (with effector)/(without effector)” value was 6.4 ± 1.3. Moreover, in data set [3] (setting [7]), the Km (in general, the concentration of substrate that gives half-maximal velocity) worked out at 60 ± 4 µM and the kcat (commonly the maximal rate divided by the concentration of active sites) turned out to be 530 ± 20 s⁻¹. Moreover, in data set [3] (no effector, pH 7.0, 25° C.), the Km was 260 ± 40 µM and the kcat turned out to be 360 ± 40 s⁻¹. Also, in data set [4], the Kd was 170 ± 20 nM.

B1: BLA: penicillin-hydrolyzing enzyme TEM1 β-lactamase, parent enzyme of the switches (protein, UniProt P62593 24-286, looked up)
Beta-lactamase TEM: HPETLVKVKDAEDQLGARVGYIELDLNSGKILESFRPEERFPMMSTFKVLLCGAVLSRVDAGQEQLGRRIHYSQNDLVEYSPVTEKHLTDGMTVRELCSAAITMSDNTAANLLLTTIGGPKELTAFLHNMGDHVTRLDRWEPELNEAIPNDERDTTMPAAMATTLRKLLTGELLTLASRQQLIDWMEADKVAGPLLRSALPAGWFIADKSGAGERGSRGIIAALGPDGKPSRIVVIYTTGSQATMDERNRQIAEIGASLIKHW
Turning to B1, the “Minimum Inhibitory Concentration of Ampicillin” value with DH5α-E cells (50 μM maltose) and in the data set with DH5α-E cells (No maltose) was “≧2000 μg/ml” each time. For the same molecule, the kcat in data set [5] (previously reported for BLA at 24° C. (Sigal et al. 1984)) is 900 s⁻¹; in data set [5] (previously reported, 30° C. (Raquet et al. 1994)), 930 s⁻¹. For the same molecule, the Km is 110 µM in data set [5] (previously reported for BLA at 24° C. (Sigal et al. 1984), read-out: Km); 52 µM in data set [5] (previously reported, 30° C. (Raquet et al. 1994), read-out: Km); 32 µM in data set [5] (substrate ampicillin (Raquet et al. 1994), read-out: Km for TEM-1 β-lactamase); 19 µM in data set [5] (substrate benzylpenicillin (Raquet et al. 1994), read-out: Km for TEM-1 β-lactamase); 246 µM in data set [5] (substrate cephalothin (Raquet et al. 1994), read-out: Km for TEM-1 β-lactamase); 3 µM in data set [5] (substrate oxacillin (Raquet et al. 1994), read-out: Km for TEM-1 β-lactamase). Besides, the “Effect of maltose on wild type BLA enzymatic activity” value in data set [5] (with or without an equimolar amount of MBP (Guntas et al. 2004)) was “no effect”.
